The values below come from article PMC6813122, “Characterization of a highly stable α-galactosidase from thermophilic Rasamsonia emersonii heterologously expressed in a modified Pichia pastoris expression system” (Microbial Cell Factories, 2019).

Data set [1] has as its target ReGal2, GH27 α-galactosidase from Rasamsonia emersonii (Rasamsonia emersonii). As to the kind of experiment: SEC; gel filtration of purified ReGal2, Superdex 200 Increase 10/300 GL, 10 mM Tris-HCl pH 8.0 plus 100 mM NaCl, calibrated with molecular weight standards; self-association, oligomeric state of the native enzyme. On the technique in general: Size exclusion chromatography separates by hydrodynamic size, large species first.

Substrate in the data set “purified protein”: O=[N+]([O-])c1ccc(O[C@H]2O[C@H](CO)[C@H](O)[C@H](O)[C@H]2O)cc1
As to the kind of experiment: purified protein. To be noted: 80 °C, 20 mM HAc-NaAc buffer pH 4.8 (general assay buffer), 0.25-2.0 mM pNPGal.

Regarding “ReGal2, GH27 α-galactosidase from Rasamsonia emersonii (enzyme)”, in data set [1], the stoichiometry N was 6.

B1: ReGal2 (Rasamsonia emersonii CBS 393.64) (protein)
chain: LDNGLAITPQMGWNTWNSFGCSLNETVILDAAEKLVSLGFKDLGYEYVVLDDCWSAGRNASGYLVPDPAKFPNGIDGLAEKIHALGLKIGIYSSAGTMTCARYAGSLGYEEKDAALWASWGIDYLKYDNCYNQGQEGTPKLSYDRYNAMGQALNKTGRPILYSLCNWGVDGPWNFASTIANSWRTSGDLLNTWDRDDANCPCSELEGLDCKTPGYKCSILNVINKAVYYPSKAFPGAWNDLDMLQVGNGGLTDDEAVAHMSLWAAFKSPLLMTNVLSNIDPPTLSILQNPAVLAVSQDPVGSSVNRIWRYYVDDVDANGYGEIQLFSGGLAGGDQLVLLLNAGSKDRTMNATLEDIFWEDGPGGTASQVQQSWDVYDLWANRMSNETAAAIINAANSTGSAAPAAPINMTALGGAKHVYSQVPPSDSKALMGTKVGSVQPSGTVKAFVKAHGVAMLRLRQQSQKKDEL
For B1, in the data set “purified protein”, the Km was 190 ± 40 µM, the kcat was 623 s⁻¹ and the kcat/Km was determined as 3.28e+06 M⁻¹ s⁻¹.

In general, stoichiometry N refers to a count of units in the complex or per binding partner. The Km is the substrate concentration at which the rate is half of its maximum. What is called kcat is the maximal rate divided by the concentration of active sites. As a reminder, the kcat/Km is the turnover number divided by the Michaelis constant.
